Biological target: NRC3 NB-ARC domain (NRC3^NB-ARC, Val-152 to Ser-507) (Nicotiana benthamiana)
Assay: SEC

Substance: Recombinant SS15 protein (Ser-25 to Ile-246, lacking signal peptide) (domain or fragment)
- stoichiometry N: 1

Source: PMC8412950
